To fix the notation:
B1: MYND-type zinc finger-containing chromatin reader ZMYND8 (Homo sapiens), Q9ULU4 (parent)
chain: MDISTRSKDPGSAERTAQKRKFPSPPHSSNGHSPQDTSTSPIKKKKKPGLLNSNNKEQSELRHGPFYYMKQPLTTDPVDVVPQDGRNDFYCWVCHREGQVLCCELCPRVYHAKCLRLTSEPEGDWFCPECEKITVAECIETQSKAMTMLTIEQLSYLLKFAIQKMKQPGTDAFQKPVPLEQHPDYAEYIFHPMDLCTLEKNAKKKMYGCTEAFLADAKWILHNCIIYNGGNHKLTQIAKVVIKICEHEMNEIEVCPECYLAACQKRDNWFCEPCSNPHPLVWAKLKGFPFWPAKALRDKDGQVDARFFGQHDRAWVPINNCYLMSKEIPFSVKKTKSIFNSAMQEMEVYVENIRRKFGVFNYSPFRTPYTPNSQYQMLLDPTNPSAGTAKIDKQEKVKLNFDMTASPKILMSKPVLSGGTGRRISLSDMPRSPMSTNSSVHTGSDVEQDAEKKATSSHFSASEESMDFLDKSTASPASTKTGQAGSLSGSPKPFSPQLSAPITTKTDKTSTTGSILNLNLDRSKAEMDLKELSESVQQQSTPVPLISPKRQIRSRFQLNLDKTIESCKAQLGINEISEDVYTAVEHSDSEDSEKSDSSDSEYISDDEQKSKNEPEDTEDKEGCQMDKEPSAVKKKPKPTNPVEIKEELKSTSPASEKADPGAVKDKASPEPEKDFSEKAKPSPHPIKDKLKGKDETDSPTVHLGLDSDSESELVIDLGEDHSGREGRKNKKEPKEPSPKQDVVGKTPPSTTVGSHSPPETPVLTRSSAQTSAAGATATTSTSSTVTVTAPAPAATGSPVKKQRPLLPKETAPAVQRVVWNSSSKFQTSSQKWHMQKMQRQQQQQQQQNQQQQPQSSQGTRYQTRQAVKAVQQKEITQSPSTSTITLVTSTQSSPLVTSSGSMSTLVSSVNADLPIATASADVAADIAKYTSKMMDAIKGTMTEIYNDLSKNTTGSTIAEIRRLRIEIEKLQWLHQQELSEMKHNLELTMAEMRQSLEQERDRLIAEVKKQLELEKQQAVDETKKKQWCANCKKEAIFYCCWNTSYCDYPCQQAHWPEHMKSCTQSATAPQQEADAEVNTETLNKSSQGSSSSTQSAPSETASASKEKETSAEKSKESGSTLDLSGSRETPSSILLGSNQGSDHSRSNKSSWSSSDEKRGSTRSDHNTSTSTKSLLPKESRLDTFWD
partner: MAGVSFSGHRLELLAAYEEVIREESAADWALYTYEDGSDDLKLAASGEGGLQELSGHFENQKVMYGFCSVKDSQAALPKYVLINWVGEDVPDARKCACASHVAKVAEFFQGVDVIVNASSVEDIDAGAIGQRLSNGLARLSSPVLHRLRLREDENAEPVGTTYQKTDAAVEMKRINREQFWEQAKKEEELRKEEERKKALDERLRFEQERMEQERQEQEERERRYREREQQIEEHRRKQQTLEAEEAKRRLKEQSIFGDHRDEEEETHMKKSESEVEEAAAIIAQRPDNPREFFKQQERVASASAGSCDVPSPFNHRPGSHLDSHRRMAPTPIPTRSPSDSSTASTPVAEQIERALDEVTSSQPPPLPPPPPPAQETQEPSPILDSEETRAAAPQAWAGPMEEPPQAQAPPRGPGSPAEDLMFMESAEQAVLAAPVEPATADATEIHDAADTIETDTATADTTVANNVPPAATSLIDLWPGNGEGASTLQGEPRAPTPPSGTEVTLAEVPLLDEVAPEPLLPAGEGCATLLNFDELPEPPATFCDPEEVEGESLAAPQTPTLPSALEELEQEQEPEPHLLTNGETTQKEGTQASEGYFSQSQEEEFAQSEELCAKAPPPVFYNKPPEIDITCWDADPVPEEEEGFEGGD
B2: Drebrin (Homo sapiens), Q16643 (parent)
chain: B1 partner
partner: B1 chain

Results on two variants are retold here after IntAct's records for PubMed 28966017.

In one test the parent is B1. Particulars: with dreb_human DBN1, Q16643.
Regarding H311A, the “effect of a mutation on the interaction” value was “disrupting interaction strength”.

Variants of B2 are the subject of another test. Particulars: with zmyd8_human ZMYND8, Q9ULU4.
On to R10G, for which the “effect of a mutation on the interaction” value was “disrupting interaction strength”.
